Measurements: patent US20090136418A1

Tests used:
[1] = molecular target: unknown target molecule expressed on the plasma membranes of human HCC cells; experiment: in vivo competition, 100 ug SP94 co-injected with 2x10^9 pfu PC94 (competitor of PC94), Mahlavu xenograft; phage recovered from tumor
[2] = molecular target: unknown target molecule expressed on the plasma membranes of human HCC cells; experiment: flow cytometry on HCC cell lines Changliver and J5 (range over the two lines); design: concentration or dose not given beside the values
[3] = molecular target: unknown target molecule expressed on the plasma membranes of human HCC cells; experiment: flow cytometry on HCC cell lines Mahlavu, 59T, Hep3B, HepG2, NTUBL and SKHepl (range over the six lines); design: concentration or dose not given beside the values
[4] = molecular target: unknown target molecule expressed on the plasma membranes of human HCC cells
[5] = molecular target: unknown target molecule expressed on the plasma membranes of human HCC cells; experiment: flow cytometry on HCC cell line HA22T; design: concentration or dose not given beside the values

| Binder | percent inhibition of PC94 binding to tumor tissue [1] [%] | percent reactive cells (FACS) [2] [%] | percent reactive cells (FACS) [3] [%] | fold binding activity over control phage [4] [fold] | percent reactive cells (FACS) [5] [%] |
| --- | --- | --- | --- | --- | --- |
| SFSIIHTPILPL [SP94 synthetic peptide (…)] | 88 |  |  |  |  |
| SFSIIHTPILPL (peptide, not shown: large carriers) [phage clone 94 (PC94)] |  | 25.7 to 31.9 | 47 to 81.2 | 8 | 19.1 |
